Experimental data from publication PMC3744951 (Molecular Biology of the Cell, 2013).

Target: GST-GSK3β fusion protein (human, UniProt P49841 1-420)
Assay: co-IP

Chain of GST-GSK3β fusion protein (P49841 whole entry, the tested form may be a part): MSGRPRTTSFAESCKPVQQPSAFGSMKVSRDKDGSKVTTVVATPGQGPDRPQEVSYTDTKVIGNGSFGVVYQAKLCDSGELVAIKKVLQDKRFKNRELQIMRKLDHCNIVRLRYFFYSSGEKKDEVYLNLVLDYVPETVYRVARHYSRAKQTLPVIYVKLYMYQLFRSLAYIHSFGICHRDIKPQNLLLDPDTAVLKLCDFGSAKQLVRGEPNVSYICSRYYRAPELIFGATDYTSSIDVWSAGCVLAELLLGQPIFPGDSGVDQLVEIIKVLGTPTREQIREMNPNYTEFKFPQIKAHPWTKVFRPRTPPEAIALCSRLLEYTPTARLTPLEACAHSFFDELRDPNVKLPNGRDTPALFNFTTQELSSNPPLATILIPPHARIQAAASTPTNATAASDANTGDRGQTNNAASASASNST

binding result: binds
B1: GST-FANCL fusion protein (natural protein, human, UniProt Q9NW38 1-375, looked up)
chain: MAVTEASLLRQCPLLLPQNRSKTVYEGFISAQGRDFHLRIVLPEDLQLKNARLLCSWQLRTILSGYHRIVQQRMQHSPDLMSFMMELKMLLEVALKNRQELYALPPPPQFYSSLIEEIGTLGWDKLVYADTCFSTIKLKAEDASGREHLITLKLKAKYPAESPDYFVDFPVPFCASWTPQSSLISIYSQFLAAIESLKAFWDVMDEIDEKTWVLEPEKPPRSATARRIALGNNVSINIEVDPRHPTMLPECFFLGADHVVKPLGIKLSRNIHLWDPENSVLQNLKDVLEIDFPARAILEKSDFTMDCGICYAYQLDGTIPDQVCDNSQCGQPFHQICLYEWLRGLLTSRQSFNIIFGECPYCSKPITLKMSGRKH
